Source: US20250250357A1
Like-named read-outs stand apart in the source and are kept apart here. Each block holds one substance with its values, some of them ahead of it.

Assays:
[1] = molecular target: human MSLN on OVCAR3 tumor cells (human) (UniProt Q13421); test: FACS, OVCAR3 cells
[2] = molecular target: human MSLN on OVCAR3 tumor cells (human) (UniProt Q13421); test: FACS, OVCAR3 cells; remark: listed apart in the source
[3] = molecular target: human MSLN on OVCAR3 tumor cells (human) (UniProt Q13421); test: FACS, OVCAR3 cells; remark: listed apart in the source
[4] = molecular target: human MSLN on OVCAR3 tumor cells (human) (UniProt Q13421); test: FACS, OVCAR3 cells; remark: listed apart in the source
[5] = molecular target: human MSLN-R3 on HEK293T-hMSLN-R3 recombinant cells (human) (UniProt Q13421); test: FACS, HEK293T-hMSLN-R3 cells
[6] = molecular target: human MSLN-R3 on HEK293T-hMSLN-R3 recombinant cells (human) (UniProt Q13421); test: FACS, HEK293T-hMSLN-R3 cells; remark: listed apart in the source
[7] = molecular target: human MSLN-R3 on HEK293T-hMSLN-R3 recombinant cells (human) (UniProt Q13421); test: FACS, HEK293T-hMSLN-R3 cells; remark: listed apart in the source
[8] = molecular target: human MSLN-R3 on HEK293T-hMSLN-R3 recombinant cells (human) (UniProt Q13421); test: FACS, HEK293T-hMSLN-R3 cells; remark: listed apart in the source
[9] = molecular target: monkey MSLN on HEK293T-monkey MSLN recombinant cells (monkey); test: FACS, HEK293T-monkey MSLN cells
[10] = molecular target: monkey MSLN on HEK293T-monkey MSLN recombinant cells (monkey); test: FACS, HEK293T-monkey MSLN cells; remark: listed apart in the source
[11] = molecular target: monkey MSLN on HEK293T-monkey MSLN recombinant cells (monkey); test: FACS, HEK293T-monkey MSLN cells; remark: listed apart in the source
[12] = molecular target: monkey MSLN on HEK293T-monkey MSLN recombinant cells (monkey); test: FACS, HEK293T-monkey MSLN cells; remark: listed apart in the source
[13] = molecular target: human MSLN-hFc protein (Acro, Cat. No. MSN-H5253) (human) (UniProt Q13421); test: ELISA on coated antigen, antibody 1 nM
[14] = molecular target: human MSLN-hFc protein (Acro, Cat. No. MSN-H5253) (human) (UniProt Q13421); test: ELISA on coated antigen, antibody 1 nM; remark: listed apart in the source
[15] = molecular target: human MSLN-hFc protein (Acro, Cat. No. MSN-H5253) (human) (UniProt Q13421); test: ELISA on coated antigen, antibody 10 nM
[16] = molecular target: human MSLN-hFc protein (Acro, Cat. No. MSN-H5253) (human) (UniProt Q13421); test: ELISA on coated antigen, antibody 0.1 nM
[17] = molecular target: human MSLN-hFc protein (Acro, Cat. No. MSN-H5253) (human) (UniProt Q13421); test: ELISA on coated antigen, antibody 100 nM
[18] = molecular target: human MSLN-hFc protein (Acro, Cat. No. MSN-H5253) (human) (UniProt Q13421); test: ELISA on coated antigen, antibody 0.1 nM; remark: listed apart in the source
[19] = molecular target: human MSLN-hFc protein (Acro, Cat. No. MSN-H5253) (human) (UniProt Q13421); test: ELISA on coated antigen, antibody 0.01 nM
[20] = molecular target: human MSLN-hFc protein (Acro, Cat. No. MSN-H5253) (human) (UniProt Q13421); test: ELISA on coated antigen, antibody 0.001 nM
[21] = molecular target: human MSLN-hFc protein (Acro, Cat. No. MSN-H5253) (human) (UniProt Q13421); test: ELISA on coated antigen, antibody 0.001 nM; remark: listed apart in the source
[22] = molecular target: human MSLN-hFc protein (Acro, Cat. No. MSN-H5253) (human) (UniProt Q13421); test: ELISA on coated antigen, antibody 0.0001 nM
[23] = molecular target: human MSLN-hFc protein (Acro, Cat. No. MSN-H5253) (human) (UniProt Q13421); test: ELISA, coated human MSLN-hFc, antibody 1 nM
[24] = molecular target: human MSLN-hFc protein (Acro, Cat. No. MSN-H5253) (human) (UniProt Q13421); test: ELISA, coated human MSLN-hFc, antibody 1 nM; remark: listed apart in the source
[25] = molecular target: human MSLN-hFc protein (Acro, Cat. No. MSN-H5253) (human) (UniProt Q13421); test: ELISA, coated human MSLN-hFc, antibody 10 nM
[26] = molecular target: human MSLN-hFc protein (Acro, Cat. No. MSN-H5253) (human) (UniProt Q13421); test: ELISA, coated human MSLN-hFc, antibody 10 nM; remark: listed apart in the source
[27] = molecular target: human MSLN-hFc protein (Acro, Cat. No. MSN-H5253) (human) (UniProt Q13421); test: ELISA, coated human MSLN-hFc, antibody 0.1 nM
[28] = molecular target: human MSLN-hFc protein (Acro, Cat. No. MSN-H5253) (human) (UniProt Q13421); test: ELISA, coated human MSLN-hFc, antibody 100 nM
[29] = molecular target: human MSLN-hFc protein (Acro, Cat. No. MSN-H5253) (human) (UniProt Q13421); test: ELISA, coated human MSLN-hFc, antibody 0.1 nM; remark: listed apart in the source
[30] = molecular target: human MSLN-hFc protein (Acro, Cat. No. MSN-H5253) (human) (UniProt Q13421); test: ELISA, coated human MSLN-hFc, antibody 100 nM; remark: listed apart in the source
[31] = molecular target: human MSLN-hFc protein (Acro, Cat. No. MSN-H5253) (human) (UniProt Q13421); test: ELISA, coated human MSLN-hFc, antibody 0.01 nM
[32] = molecular target: human MSLN-hFc protein (Acro, Cat. No. MSN-H5253) (human) (UniProt Q13421); test: ELISA, coated human MSLN-hFc, antibody 0.01 nM; remark: listed apart in the source
[33] = molecular target: human MSLN-hFc protein (Acro, Cat. No. MSN-H5253) (human) (UniProt Q13421); test: ELISA, coated human MSLN-hFc, antibody 0.001 nM
[34] = molecular target: human MSLN-hFc protein (Acro, Cat. No. MSN-H5253) (human) (UniProt Q13421); test: ELISA, coated human MSLN-hFc, antibody 0.001 nM; remark: listed apart in the source
[35] = molecular target: human MSLN-hFc protein (Acro, Cat. No. MSN-H5253) (human) (UniProt Q13421); test: ELISA, coated human MSLN-hFc, antibody 0.0001 nM
[36] = molecular target: monkey MSLN full-length protein expressed on HEK293T cells (HEK293T-monkey MSLN) (monkey); test: FACS on HEK293T-monkey MSLN cells
[37] = molecular target: monkey MSLN full-length protein (NCBI: XP_028696439.1) on HEK293T cells (monkey); test: FACS on HEK293T-monkey MSLN cells; antibody […]
[38] = molecular target: monkey MSLN full-length protein (NCBI: XP_028696439.1) on HEK293T cells (monkey); test: FACS on HEK293T-monkey MSLN cells; antibody 4 nM
[39] = molecular target: monkey MSLN full-length protein (NCBI: XP_028696439.1) on HEK293T cells (monkey); test: FACS on HEK293T-monkey MSLN cells; antibody 20 nM
[40] = molecular target: monkey MSLN full-length protein (NCBI: XP_028696439.1) on HEK293T cells (monkey); test: FACS on HEK293T-monkey MSLN cells; antibody 0.8 nM
[41] = molecular target: monkey MSLN full-length protein (NCBI: XP_028696439.1) on HEK293T cells (monkey); test: FACS on HEK293T-monkey MSLN cells; antibody 100 nM
[42] = molecular target: monkey MSLN full-length protein (NCBI: XP_028696439.1) on HEK293T cells (monkey); test: FACS on HEK293T-monkey MSLN cells; antibody 0.032 nM
[43] = molecular target: monkey MSLN full-length protein (NCBI: XP_028696439.1) on HEK293T cells (monkey); test: FACS on HEK293T-monkey MSLN cells; antibody 0.0064 nM
[44] = molecular target: monkey MSLN full-length protein (NCBI: XP_028696439.1) on HEK293T cells (monkey); test: FACS on HEK293T-monkey MSLN cells; antibody 0.00128 nM
[45] = molecular target: human MSLN-FL-his protein (human) (UniProt Q13421); test: ELISA, antibody 100 nM
Sequence of human MSLN-FL-his protein (human) (Q13421 other isoform, or with tags, fused parts or gaps): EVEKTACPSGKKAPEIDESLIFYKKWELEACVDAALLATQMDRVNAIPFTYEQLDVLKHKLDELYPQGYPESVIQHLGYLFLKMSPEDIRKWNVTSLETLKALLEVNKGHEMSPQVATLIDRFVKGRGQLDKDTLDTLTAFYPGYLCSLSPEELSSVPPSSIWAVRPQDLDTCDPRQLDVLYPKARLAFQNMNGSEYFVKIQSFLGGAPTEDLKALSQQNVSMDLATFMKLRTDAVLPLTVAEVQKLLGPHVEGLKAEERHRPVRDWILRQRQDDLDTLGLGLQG

Sequence of human MSLN on OVCAR3 tumor cells (human) (Q13421 other isoform, or with tags, fused parts or gaps): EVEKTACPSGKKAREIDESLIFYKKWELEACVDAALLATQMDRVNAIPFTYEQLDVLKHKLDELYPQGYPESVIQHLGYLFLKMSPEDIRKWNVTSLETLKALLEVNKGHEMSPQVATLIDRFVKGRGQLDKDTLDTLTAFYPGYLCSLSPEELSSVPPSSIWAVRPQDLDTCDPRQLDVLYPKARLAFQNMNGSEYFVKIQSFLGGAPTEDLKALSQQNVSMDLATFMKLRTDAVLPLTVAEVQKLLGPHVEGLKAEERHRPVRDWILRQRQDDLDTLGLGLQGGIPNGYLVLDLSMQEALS
Sequence of human MSLN-R3 on HEK293T-hMSLN-R3 recombinant cells (human) (Q13421 495-614): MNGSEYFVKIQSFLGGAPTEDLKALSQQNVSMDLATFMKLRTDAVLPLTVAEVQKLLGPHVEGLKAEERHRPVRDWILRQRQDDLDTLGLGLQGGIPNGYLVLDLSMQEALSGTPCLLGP
Sequence of human MSLN-hFc protein (Acro, Cat. No. MSN-H5253) (human) (Q13421 other isoform, or with tags, fused parts or gaps limits assumed): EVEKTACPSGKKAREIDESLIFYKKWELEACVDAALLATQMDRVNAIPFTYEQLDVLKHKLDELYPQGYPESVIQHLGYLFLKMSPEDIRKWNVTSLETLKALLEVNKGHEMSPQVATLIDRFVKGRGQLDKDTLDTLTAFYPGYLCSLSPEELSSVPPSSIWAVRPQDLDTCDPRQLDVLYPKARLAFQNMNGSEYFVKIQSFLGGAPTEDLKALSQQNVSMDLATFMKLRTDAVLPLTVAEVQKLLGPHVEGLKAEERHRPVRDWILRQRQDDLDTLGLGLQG

- Maximum MFI [1]: 336 MFI
- Maximum MFI [2]: 209 MFI
- Maximum MFI [3]: 469 MFI
- Maximum MFI [4]: 454 MFI
- Maximum MFI [5]: 439 MFI
- Maximum MFI [6]: 92 MFI
- Maximum MFI [7]: 304 MFI
- Maximum MFI [8]: 156 MFI
- Maximum MFI [9]: 279 MFI
- Maximum MFI [10]: 104 MFI
- Maximum MFI [11]: 231 MFI
- Maximum MFI [12]: 172 MFI
- OD450 [13]: 0.06 OD450
- OD450 [14]: 0.07 OD450
- OD450 [15]: 0.07 OD450
- OD450 [16]: 0.13 OD450
- OD450 [17]: 0.07 OD450
- OD450 [18]: 0.06 OD450
- OD450 [19]: 0.07 OD450
- OD450 [20]: 0.11 OD450
- OD450 [21]: 0.07 OD450
- OD450 [22]: 0.06 OD450
Substance: Tab084 (NC) (scFv)

- OD450 nm [23]: 0.05
- OD450 nm [24]: 0.06
- OD450 nm [25]: 0.05
- OD450 nm [26]: 0.07
- OD450 nm [27]: 0.05
- OD450 nm [28]: 0.05
- OD450 nm [29]: 0.07
- OD450 nm [30]: 0.07
- OD450 nm [31]: 0.05
- OD450 nm [32]: 0.06
- OD450 nm [33]: 0.05
- OD450 nm [34]: 0.06
- OD450 nm [35]: 0.05
Substance: Tab084 (NC), m971 VH-(G4S)3-VL-his (scFv)

- EC50 [36]: < 0.5 nM
- Maximum mean fluorescence intensity [36]: 12400
- FACS fluorescence intensity [37]: 313
- FACS fluorescence intensity [38]: 2440
- FACS fluorescence intensity [39]: 2660
- FACS fluorescence intensity [40]: 860
- FACS fluorescence intensity [41]: 3290
- FACS fluorescence intensity [42]: 142
- FACS fluorescence intensity [43]: 100
- FACS fluorescence intensity [44]: 90
Substance: Tab106 (YP218, hIgG1) (antibody)

- OD450 nm [45]: 0.16
- FACS fluorescence intensity [37]: 83
- FACS fluorescence intensity [38]: 86
- FACS fluorescence intensity [39]: 85
- FACS fluorescence intensity [40]: 87
- FACS fluorescence intensity [41]: 87
- FACS fluorescence intensity [42]: 106
- FACS fluorescence intensity [43]: 85
- FACS fluorescence intensity [44]: 93
Substance: Tab131 (m912, scFv-hIgG1 Fc) (Fc fusion)
